Data from patent publication EP2353607A1.

Assays:
[1] = target: integrin αvβ3 on cultured endothelial cells (species of the cells not stated); experiment: cell-based or functional assay
[2] = target: integrin α5β1 on cultured endothelial cells (species of the cells not stated); experiment: cell-based or functional assay

Work on “recombinant disintegrin domain (RDD) of metargidin (human ADAM-15)” yielded an endothelial cell migration (scratch-wound closure) in the presence of 15µg/ml RDD protein, as compared to untreated control culture [1] of 54.5% and an endothelial cell migration (scratch-wound closure) in the presence of 15µg/ml RDD protein, as compared to untreated control culture [2] of 54.5%.
